Earlier results in patent publication US10385327B2, “Enhanced E. coli for the production of fatty acids and method of producing the same” (University of Puerto Rico, priority 2012, dated 2019).

B1: E. coli FabA dehydratase: DH enzyme involved in fatty acid biosynthesis in E. coli (protein, UniProt P0A6Q3 2-172, looked up)
3-hydroxydecanoyl-[acyl-carrie …: VDKRESYTKEDLLASGRGELFGAKGPQLPAPNMLMMDRVVKMTETGGNFDKGYVEAELDINPDLWFFGCHFIGDPVMPGCLGLDAMWQLVGFYLGWLGGEGKGRALGVGEVKFTGQVLPTAKKVTYRIHFKRIVNRRLIMGLADGEVLVDGRLIYTASDLKVGLFQDTSAF
B2: FAS 1-1168 construct: Fatty Acid Synthase construct of Pasta et al., 2007, literature comparator for dehydratase specific activity (protein, UniProt P49327 1-1168, looked up, fragment)
chain: MEEVVIAGMSGKLPESENLQEFWDNLIGGVDMVTDDDRRWKAGLYGLPRRSGKLKDLSRFDASFFGVHPKQAHTMDPQLRLLLEVTYEAIVDGGINPDSLRGTHTGVWVGVSGSETSEALSRDPETLVGYSMVGCQRAMMANRLSFFFDFRGPSIALDTACSSSLMALQNAYQAIHSGQCPAAIVGGINVLLKPNTSVQFLRLGMLSPEGTCKAFDTAGNGYCRSEGVVAVLLTKKSLARRVYATILNAGTNTDGFKEQGVTFPSGDIQEQLIRSLYQSAGVAPESFEYIEAHGTGTKVGDPQELNGITRALCATRQEPLLIGSTKSNMGHPEPASGLAALAKVLLSLEHGLWAPNLHFHSPNPEIPALLDGRLQVVDQPLPVRGGNVGINSFGFGGSNVHIILRPNTQPPPAPAPHATLPRLLRASGRTPEAVQKLLEQGLRHSQDLAFLSMLNDIAAVPATAMPFRGYAVLGGERGGPEVQQVPAGERPLWFICSGMGTQWRGMGLSLMRLDRFRDSILRSDEAVKPFGLKVSQLLLSTDESTFDDIVHSFVSLTAIQIGLIDLLSCMGLRPDGIVGHSLGEVACGYADGCLSQEEAVLAAYWRGQCIKEAHLPPGAMAAVGLSWEECKQRCPPGVVPACHNSKDTVTISGPQAPVFEFVEQLRKEGVFAKEVRTGGMAFHSYFMEAIAPPLLQELKKVIREPKPRSARWLSTSIPEAQWHSSLARTSSAEYNVNNLVSPVLFQEALWHVPEHAVVLEIAPHALLQAVLKRGLKPSCTIIPLMKKDHRDNLEFFLAGIGRLHLSGIDANPNALFPPVEFPAPRGTPLISPLIKWDHSLAWDVPAAEDFPNGSGSPSAAIYNIDTSSESPDHYLVDHTLDGRVLFPATGYLSIVWKTLARALGLGVEQLPVVFEDVVLHQATILPKTGTVSLEVRLLEASRAFEVSENGNLVVSGKVYQWDDPDPRLFDHPESPTPNPTEPLFLAQAEVYKELRLRGYDYGPHFQGILEASLEGDSGRLLWKDNWVSFMDTMLQMSILGSAKHGLYLPTRVTAIHIDPATHRQKLYTLQDKAQVADVVVSRWLRVTVAGGVHISGLHTESAPRRQQEQQVPILEKFCFTPHTEEGCLSERAALQEELQLCKGLVQALQTKVTQQGLKMVVPGLDGAQ

How the values were obtained:
[1] = tested on: E. coli BL21-DE3-CodonPlus (RIL) cells; settings: previous work by others
[2] = literature value for FAS dehydratase construct

Molecule	effect of overexpression on production of fatty acids in E. coli [1]	specific activity reported (Pasta et al., 2007) [2]
B1	does not increase the production of fatty acids	
B2		204 mol product/(min*mol enzyme)
